{"source": "patent US20250313611A1", "biological_target": "SARS-COV-2 spike [change] trimer ([change]-foldon-His-Strep) (SARS-CoV-2 (Wuhan)) (UniProt P0DTC2)"}
{"substance": "VHH72-S56A", "values": [{"measurement": "IC50 (read off the curve)", "value": 0.6, "unit": "µg/mL"}]}
